In patent publication US20100284921A1:

Target: human polyomavirus (JC virus) T-antigen (JC virus (human polyomavirus))
Experiment: competition on T-antigen positive cells, 1 hour: 100-fold excess of unconjugated pAb416 against the ^125I 8 Ab/CLIO conjugate

pAb416, a monoclonal antibody against T-antigen (IgG, not coupled to CLIO)
percent decrease of binding and internalization of ^125I-Ab-CLIO: > 80%
